Source: patent US8980614B2, “Staphylococcus haemolyticus prophage φSH2 endolysin is lytic for Staphylococcus aureus” (The United States of America, as represented by The …, priority 2012, dated 2015)

Experiments:
S. epidermidis = experiment: Plate lysis assay; assay type: cell-based; details: 100 pmoles and 2-fold serial dilutions spotted on bacterial lawns
Experimental: (§1) Purified proteins (100 pmoles in a 10 μl volume and five two-fold serial dilutions thereof) were spotted onto a freshly spread lawn of log phase staphylococcal cells (OD600 nm of 0.4-0.6, diluted ¼ before plating) that had air dried for 15 min on gridded TSA (tryptic soy agar) plates. The spotted plates were air dried for 10 min in a laminar flow hood and incubated overnight at 37° C. Cleared spots indicating cell lysis were scored within 24 hours of plating the cells.
(§2) The φSH2 full length enzyme and the A1 construct were further tested in plate lysis assays against a set of different staphylococcal strains, including MRSA strains (NRS 382-385), mastitis isolates (305, Tanji 1-26), and coagulase negative staphylococci (non S. aureus) (Table 2). The same molar amounts of both proteins (ranging from 100 pmoles to 3.125 pmoles, in a volume of 10 ul) were spotted onto lawns of mid log phase cells of the respective strains, and the plates were analyzed for lysis zones the next day.

S. aureus Tanji 1 = experiment: Plate lysis assay; assay type: cell-based; details: 100 pmoles and 2-fold serial dilutions spotted on bacterial lawns
Experimental: as §1, §2

S. aureus Tanji 26 = experiment: Plate lysis assay; assay type: cell-based; details: 100 pmoles and 2-fold serial dilutions spotted on bacterial lawns
Experimental: as §1, §2

S. aureus Tanji 19 = experiment: Plate lysis assay; assay type: cell-based; details: 100 pmoles and 2-fold serial dilutions spotted on bacterial lawns
Experimental: as §1, §2

S. aureus NRS 382 = experiment: Plate lysis assay; assay type: cell-based; details: S. aureus NRS 382 (MRSA); 100 pmoles and 2-fold serial dilutions spotted on bacterial lawns
Experimental: as §1, §2

S. chromogenes = experiment: Plate lysis assay; assay type: cell-based; details: 100 pmoles and 2-fold serial dilutions spotted on bacterial lawns
Experimental: as §1, §2

S. xylocus = experiment: Plate lysis assay; assay type: cell-based; details: 100 pmoles and 2-fold serial dilutions spotted on bacterial lawns
Experimental: as §1, §2

S. aureus NRS 384 = experiment: Plate lysis assay; assay type: cell-based; details: S. aureus NRS 384 (MRSA); 100 pmoles and 2-fold serial dilutions spotted on bacterial lawns
Experimental: as §1, §2

S. aureus NRS 383 = experiment: Plate lysis assay; assay type: cell-based; details: S. aureus NRS 383 (MRSA); 100 pmoles and 2-fold serial dilutions spotted on bacterial lawns
Experimental: as §1, §2

S. simulans = experiment: Plate lysis assay; assay type: cell-based
Experimental: as §1, §2

S. warneri = experiment: Plate lysis assay; assay type: cell-based; details: 100 pmoles and 2-fold serial dilutions spotted on bacterial lawns
Experimental: as §1, §2

S. aureus Tanji 20 = experiment: Plate lysis assay; assay type: cell-based; details: 100 pmoles and 2-fold serial dilutions spotted on bacterial lawns
Experimental: as §1, §2

S. aureus Newman = experiment: Plate lysis assay; assay type: cell-based
Experimental: as §1, §2

S. aureus NRS 385 = experiment: Plate lysis assay; assay type: cell-based; details: S. aureus NRS 385 (MRSA); 100 pmoles and 2-fold serial dilutions spotted on bacterial lawns
Experimental: as §1, §2

S. hyicus = experiment: Plate lysis assay; assay type: cell-based
Experimental: as §1, §2

S. aureus 305 = experiment: Plate lysis assay; assay type: cell-based; details: 100 pmoles and 2-fold serial dilutions spotted on bacterial lawns
Experimental: as §1, §2

S. aureus Newman cells [1] = experiment: Turbidity reduction assay; assay type: cell-based, Staphylococcus aureus
Experimental: The turbidity reduction assay measures a decrease in optical density of a bacterial suspension due to lysis of the target bacteria by a lytic protein. The assays were performed in a 96-well dish format essentially as described previously (Donovan et al. 2006, supra). In order to reduce the variability of the assay, frozen stocks of S. aureus Newman substrate cells were prepared in a large batch as described by Becker et al. (2009b, supra). Immediately prior to the assay, the frozen cells were thawed, washed, and resuspended in the desired assay buffer such that when 100 μl of cell suspension were added to 100 μl of lysis buffer+/−protein, the final suspension has an OD600nm of ˜1.0.
Protein constructs were assayed at a concentration of 1 μM, and the assay was performed at room temperature, measuring the OD600nm at 1 min intervals for 45 min. Buffer without enzyme served as the control. The steepest slopes of the resulting lysis curves, which correspond to the lytic activities of the proteins, were determined by a sliding window over each group of three consecutive time points for the entire 45 min period. Specific activities were expressed as ΔOD600nm/min/μM, and the “no enzyme” control value was subtracted from each experimental value.
In order to determine the effect of salt concentration on lytic activity, turbidity reduction assays were performed in 10 mM Tris buffers at pH 7.5 with varying NaCl concentrations between 0 mM and 600 mM. Accordingly, the influence of pH was determined by using a series of different buffers with pH values ranging from 3.5 to 10.0. Citrate buffers were used for pH 3.5, 4.5, 5.5, and 6.0, MOPS buffers for pH 6.5, 7.0, and 7.5, Tris buffers for pH 8.0 and 9.0, and Carbonate/bicarbonate buffer for pH 10.0. The concentration of the buffer substance in all buffers used was 20 mM, and the NaCl concentration was 200 mM. To test the effect of bivalent metal ions, assays were performed in 10 mM Tris, 200 mM NaCl, pH 7.5 supplemented with MgCl2, MnCl2, or CaCl2 at different concentrations (0.1 mM, 1 mM, 10 mM), buffer without metal ions serving as control.

[2] = test system: staphylococcal strains (MRSA strains, mastitis isolates, coagulase negative staphylococci); experiment: Plate lysis assay, whole set of strains; assay type: cell-based, Staphylococcus; details: 100 to 3.125 pmoles spotted
Experimental: as §1, §2

S. aureus Newman cells [3] = experiment: Zymogram with S. aureus Newman cells embedded in the gel; assay type: cell-based; details: 5 μg protein
Experimental: All purified proteins were analyzed with 15% SDS-PAGE, using a Kaleidoscope Precision Plus Protein Standard (BioRad, Hercules, Calif.). For zymograms, a 300 mL culture volume equivalent of live mid-log phase (OD600nm=0.4-0.6) cells of S. aureus strain Newman was embedded in the gel during polymerization. The protein samples were boiled in Laemmli sample buffer (BioRad) with β-mercaptoethanol, and electrophoresed with identical buffers and voltage for one hour in both the SDS-PAGE and the zymogram using a Mini-Protean TETRA gel system (BioRad). SDS gels were Coomassie stained and zymograms were washed in excess water and further incubated in deionized water for 60 min, followed by incubation in 10 mM Tris, pH 8.0 with 150 mM or 300 mM NaCl for 80 min. Areas of clearing in the turbid zymogram gel indicate a lytic protein in the gel.

MRSA strain NRS382 = experiment: Control of systemic MRSA infection in a murine model; assay type: in vivo, Balb/c mice
[4] = 100 pmoles and 2-fold serial dilutions spotted on bacterial lawns

B1: ΦSH2 full length: Full length C-terminally 6×His-tagged Staphylococcus haemolyticus φSH2 prophage endolysin (1-493), SEQ ID NO:2 (protein)
chain: MKTQAEINKRLDAYRKGTVDSPYRVKVWTSYDNRFYPMEPGCIDVDKSFHAQCADLTIDYILWLTDNEFRIRGNAKDAINPKKNKLPEGWKIVLNRPSTVPRKGWIAVFTDGTYWEYGHIGMVYDGGNTSRFQILEQNWNGWANKKPSLRWDNYYGLTHFIVPPVAKENKAVSSSKQQAPKQKVKKASTKKALPKITKHITGYNMDKRGYNPKGVVLHNDAGGMNYKQYYNNLVNANYDRLARGIAHAYVDRTGIWEAIDESRIAWHVADGTRPGSGNHDFYGIEVNQSLRASDKEFLENEQAVFQFAAEKLKKWGLPANRNTVRLHNEFSQTSCPHRSMVLHTGLDPLYHSITEHARLKLKDYFIKQIRAYMDGKKPTSKVVVSKPGSASTPATRKDANGYRENPHGTLYKEEHATFTANANIITRYVGPFTNMPQAGILKAGQTIIYDEVMKQDGYIWVGYTAYNGKRVYLPVRKWNRETDSVGKLWGVISLEHHHHHH
modifications: C-terminal 6xHis tag; Bacteriophage Phi SH2
Q: With B1 as the molecule, how does the “Lytic activity (lowest amount of protein producing a lysis zone)” value (S. epidermidis) read?
A: Its value is “− (‘−’ means that no lysis was observed at the highest amount tested (100 pmoles))”.

Q: What about the “Lytic activity (lowest amount of protein producing a lysis zone)” value (S. aureus Tanji 1) of the same molecule?
A: Its value is “++ (++: 50 pmoles)”.

Q: And the “Lytic activity (lowest amount of protein producing a lysis zone)” value (S. aureus Tanji 26)?
A: Its value is “+ (+: 100 pmoles)”.

Q: And the “Lytic activity (lowest amount of protein producing a lysis zone)” value (S. aureus Tanji 19)?
A: The value was “++ (++: 50 pmoles)”.

Q: And the “Lytic activity (lowest amount of protein producing a lysis zone)” value (S. aureus NRS 382)?
A: Its value is “− (‘−’ means that no lysis was observed at the highest amount tested (100 pmoles))”.

Q: And the “Lytic activity (lowest amount of protein producing a lysis zone)” value (S. chromogenes)?
A: The value was “+++ (+++: 25 pmoles)”.

Q: What about the “Lytic activity (lowest amount of protein producing a lysis zone)” value (S. xylocus) of the same molecule?
A: Its value is “+++ (+++: 25 pmoles)”.

Q: What about the “Lytic activity (lowest amount of protein producing a lysis zone)” value (S. aureus NRS 384) of the same molecule?
A: Its value is “+ (+: 100 pmoles)”.

Q: What about the “Lytic activity (lowest amount of protein producing a lysis zone)” value (S. aureus NRS 383) of the same molecule?
A: The value was “− (‘−’ means that no lysis was observed at the highest amount tested (100 pmoles))”.

Q: What about the “Lytic activity (lowest amount of protein producing a lysis zone)” value (S. simulans; [4]) of the same molecule?
A: The value was “+ (+: 100 pmoles)”.

Q: What about the “amount of protein causing a lysis zone” value (S. simulans; 100 to 3.125 pmoles spotted) of the same molecule?
A: Its value is 100 pmol.

Q: And the “Lytic activity (lowest amount of protein producing a lysis zone)” value (S. warneri)?
A: Its value is “+++ (+++: 25 pmoles)”.

Q: And the “Lytic activity (lowest amount of protein producing a lysis zone)” value (S. aureus Tanji 20)?
A: The value was “++ (++: 50 pmoles)”.

Q: And the “Lytic activity (lowest amount of protein producing a lysis zone)” value (S. aureus Newman; [4])?
A: Its value is “− (‘−’ means that no lysis was observed at the highest amount tested (100 pmoles))”.

Q: And the “amount of protein causing a lysis zone” value (S. aureus Newman; 100 to 3.125 pmoles spotted)?
A: The value was “not lysed by the highest amount”.

Q: And the “Lytic activity (lowest amount of protein producing a lysis zone)” value (S. aureus NRS 385)?
A: Its value is “− (‘−’ means that no lysis was observed at the highest amount tested (100 pmoles))”.

Q: And the “Lytic activity (lowest amount of protein producing a lysis zone)” value (S. hyicus; [4])?
A: The value was “++++++ (++++++: ≦3.125 pmoles)”.

Q: And the “amount of protein causing a lysis zone” value (S. hyicus; 100 to 3.125 pmoles spotted)?
A: The value was “lowest amount tested”.

Q: What about the “Lytic activity (lowest amount of protein producing a lysis zone)” value (S. aureus 305) of the same molecule?
A: Its value is “++ (++: 50 pmoles)”.

Q: What about the “NaCl concentration of optimum lytic activity” value (S. aureus Newman cells [1]; 1 μM protein, 10 mM Tris pH 7.5, NaCl 0-600 mM) of the same molecule?
A: The value was 300 mM.

Q: What about the “lytic activity in turbidity reduction assays (in words)” value (S. aureus Newman cells [1]; 1 μM protein, different NaCl concentrations) of the same molecule?
A: Its value is “moderate lytic activity”.

Q: What about the “increase of lytic activity by Ca2+” value (S. aureus Newman cells [1]; 10 mM CaCl2, relative to 0 mM, 10 mM Tris, 200 mM NaCl, pH 7.5) of the same molecule?
A: The value was “three-fold”.

Q: What about the “effect of Mg2+ on lytic activity” value (S. aureus Newman cells [1]; 0.1-10 mM MgCl2, 10 mM Tris, 200 mM NaCl, pH 7.5) of the same molecule?
A: The value was “not significantly alter”.

Q: What about the “effect of Mn2+ on lytic activity” value (S. aureus Newman cells [1]; 0.1-10 mM MnCl2, 10 mM Tris, 200 mM NaCl, pH 7.5) of the same molecule?
A: Its value is “slightly inhibitory effect”.

Q: What about the “strains against which lytic activity was displayed” value ([2]; 16 strains tested) of the same molecule?
A: Its value is 11 out of 16.

Q: What about the MRSA strains lysed ([2]; four MRSA strains (NRS 382-385)) of the same molecule?
A: The MRSA strains lysed was “one out of four”.

Q: And the lysis in zymogram (S. aureus Newman cells [3]; after incubation in deionized water for 60 min)?
A: The lysis in zymogram was “faint zones of lysis”.

Q: What about the lysis in zymogram (S. aureus Newman cells [3]; water 60 min, then 10 mM Tris, 150 mM NaCl, pH 8.0 up to 80 min) of the same molecule?
A: The lysis in zymogram was “considerably weaker”.

Q: And the lysis in zymogram (S. aureus Newman cells [3]; water 60 min, then 10 mM Tris, 300 mM NaCl, pH 8.0 for 80 min)?
A: The lysis in zymogram was “pronounced lytic band”.

Q: What about the “% Survival” value (MRSA strain NRS382; 0 hours, mice infected i.p. with MRSA NRS382, treated 30 min post infection (φSH2 200 μg/mouse i.p.; Vancomycin 375 μg/mouse s.c.; Oxacillin 1250 μg/mouse s.c.)) of the same molecule?
A: Its value is 100%.

Q: And the “% Survival” value (MRSA strain NRS382; 4 hours, same infection and treatment)?
A: The value was 100%.

Q: What about the “% Survival” value (MRSA strain NRS382; 8 hours, same infection and treatment) of the same molecule?
A: The value was 100%.

Q: And the “% Survival” value (MRSA strain NRS382; 12 hours, same infection and treatment)?
A: The value was 100%.

Q: And the “% Survival” value (MRSA strain NRS382; 16 hours, same infection and treatment)?
A: Its value is 100%.

Q: What about the “% Survival” value (MRSA strain NRS382; 20 hours, same infection and treatment) of the same molecule?
A: The value was 100%.

Q: And the “% Survival” value (MRSA strain NRS382; 24 hours, same infection and treatment)?
A: Its value is 100%.

Q: What about the “% Survival” value (MRSA strain NRS382; 28 hours, same infection and treatment) of the same molecule?
A: The value was 100%.

Q: What about the “% Survival” value (MRSA strain NRS382; 32 hours, same infection and treatment) of the same molecule?
A: Its value is 100%.

Q: What about the “% Survival” value (MRSA strain NRS382; 36 hours, same infection and treatment) of the same molecule?
A: The value was 100%.

Q: And the “% Survival” value (MRSA strain NRS382; 40 hours, same infection and treatment)?
A: The value was 100%.

Q: What about the “% Survival” value (MRSA strain NRS382; 44 hours, same infection and treatment) of the same molecule?
A: Its value is 100%.

Q: And the “% Survival” value (MRSA strain NRS382; 48 hours (end of the experiment), same infection and treatment)?
A: The value was 100%.
